Values quoted from earlier work as cited in publication PMC5040959.

Target: Glu286 (UniProt position 286, FFGHPEVYIIV)
Assay: kinetics
Details: fully reduced CytcO reacting with O2, F -> O step

Q: For “Cytochrome c oxidase (cytochrome aa3), subunit I (Rhodobacter sphaeroides)”, which pKa is on record?
A: ~9
